Source: the NTF2 design screens of Basanta et al. (2020)

Assay: protease stability score; higher = more stable; yeast display proteolysis, trypsin and chymotrypsin;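 also: log10 excess protease needed over predicted unfolded state with 0 meaning unfolded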

Sequence | protease stability score
DEDRYERLVKKAFEMIVKGNEEEVRKLLKPDVDYEYADHKFRGEEAAQFIVRLVQKVGAQAEVRRHKVEGNTATADFVYHDGDQTVQTRAEVTYEGDKLKQARVENTEEVKKLDHKG | 0.003
DEDRYKKLMDKAFKLIMSGDEETMIKMLKPDVQYEYIDTKYEGEQVAKVIVRIVQKVGAEVRIKRKEHKGDKARADFDYHNGDQTVRTTAEVRYEGDKLKEARVKMTDEVKKVVQRG | 0.028
DEDRYRRKIEEVFKQVENGDEKKMKKDLKENVKYKYADKEKEGPEVAEHIVKVVKKIGAEVTRKEQEVKGDTLRAKFQYRKGDQTVRTEAEATYEGDQAKEVRVKMTDEVKKIVHQG | 0.05
DEDSDRSVAQEFFEAVQRGNKSDVHRLADKDAKAEVGEKDIDGREELTKWVRELKRRVDHLDVKSITNKPGRVHFDAEYHFNGTTEKMVIVVQVHNGKVKEVTVQRG | 0.908
DEDSEAHKLLRELEKVLSTGDEDKMRRLADPNASIRIGDTQIRGRTQIQDHVKRHKEHVDKVSIDVKEVTAQGNKANMKYVIRVQINGRTHQEQVRVDVDLQGDKFKIKQWTEG | 0.055
DEDSEATEVAKTMHKNMKEGDPDKFMDQFDKDVRVQVGDKVYHGRDNALKWVREMLKRVDHVNFQVKRVRRQGDSVVLHLEVTLNQNGKHDKTTFVIHFTKQGDKFRADHLREQ | 1.86
DEDSEFEAARRFFKAVQTGDEDEAMRQMDEDASARVGDKTYHGREHARKAMHNFRQEVDHIDVTTFDKSNGRLDVNAILEHNGKTKSVKINIQASNGHVKSVNIQDK | -0.103
DEDSHKKLLEEMKDILNHGNFKNMLELADKNVRMQVGDKQYTGHSEFEDFLEHQRRQIDHLQVTDFKVSGENLVLTATANVNGKHVTIRFVVFFENGKMVRMEVDPSFQKQLES | 0.87
DEDSQAHEIAQHFIELLKHNNEDDMKKYIDPNAKAQYGDKRVHGRNHVIRTFKEMRDKVDHISVEIKSIKANGEKISADMVVTFNVNGKNETVQYVLIFQVQGERVRVTHVKID | 0.796
DEDSQTKLAELFITALEEGDPELANKNVDENARADVGDKTLHGREDVSRMVHDLRRRADHIQVETLEVRNGRVDAIIVIDVNGKKVRFRMEIEIHNGRIKHLRMKSE | 0.653
DEDTALTIAEQVMKAIQRGDEEEAEKLGKPDVEVQAFNERNKGQEMLKKAVEYVKKVGDQFEYKETRKEGNQVVTVVQVTRGGRTMEYKVDVKVEGGKVKLWRVEIPEEFAKVVEKS | 0.013
DEDTARKQVQIYKDNDPNQLVRMFDENARLKVGDQTVDGREELERWVKRLRTRVDRYSYKNVDIQGERVVIDMVMVVDGKQVEFVVEFVVEDGRIKNAKVQARNKDEETKLQEAIG | 1.25
DEDTESNFRQFIRAWKSGNPNELRRLAPPDAHLKVGDKEWHGMEKAVTYLEREVKESTFDIKRWDVKVDGNSVTAHVKMVVHDNGQPNNYKVEMNANFHNGQIESYNVETRK | 0.267
DEDTIKKLVKRMIDALVKNNTEEARRLLKPDVRFEAVDTEVRGPDQVATYYKKVKDLGVEIRVKEYKVEGNHAKVKYDMRHGGDQITVEAELEAKDSKVDRFRHEDDEKYQKTVKHG | 0.154
DEDTIRKVNRSFLEAVQHNDDDTLRRLLDEDAHAQYGDKTVHGKTEVVKMILTFVEQVDSLDYKSITATGDHVDVKVDAKHNGRTLDVRIIMRIENGRFTHVQFDIR | 0.075
DEDTIRRQAKEFFKNFRDNDEDSLRTLMDENVEARYGDKTYHGRESVLTALATVLSQIDHLEVENLHVHNGRIEVVMKFVVNGREVRMNVIFHIRNGRIKKINIDPDEQRKLES | 1.49
DEDTLKHMAREFVKALQTGDEDRLSEMVDENVRIDYGDKTVSGRKKAQEYAHRVRKQVDHIEVREVEVHGNKVEIDAVLVFNGQRLTVTFRIIMRNGKVQHIQLEVTDPDKQRKAEQ | 1.26
DEDTLKKLFEQVFKYVQKGNTKELKKVIDESVEFQFGDHRYKGVDQYIKLIKEFKDRGVQFRVEEAQQKDDDVTMRTKIRYGNKEVTVKAQARYDGGHAKHFRVELSEEAKKALKTG | 0.292
DEDTLKKMAQKIADAIRKGDEDQMERLADEDARMSYGDTTWHGRQEVKKAVREFRNQFDHLTIKRITVKGEKVKIDAEFTVNGREVSFVVIAHVNNGRLKEVVVHFTDPDTLHEALK | 0.622
DEDTLRKVAETLMKALKTNDSESLKQMMDKDVKMTVGDKKYQGREEAADHLIELAQSVDHLEVRSVDNQGNHASVEFEVQHNGRNDTVHLRFEISNGRVKNVVLHTP | 1.99
DEDTLRTQEEQFKRNNPDDLKKQFDPNAKIRYGDKEITGREDLKKFIDKLRKRIDHYRVRSINIKGEHVRADVVVVVDGRHVRYKVIRHLDNGKVKSLEVKFTSEEQEKKFKEALD | 0.261
DEDTNREQVKRFEEAQQENDPDKWMDNLDENARLDVGDTRVHGSKEIMKHFKRLNDKIDHWRVQSFEFHNGRMKLNAVARVNGKRLKMQFQANVHNGKFTELRMDPDAVRKITS | 0.413
DEDVEDRVRRFLEQVNHNNPQDLSKYMDPNARLDIGDKVLHGREDIHKFWEDLIRESRIEVREMDVKVHNGRVSATVRFVEHENGNPRETVMKITATWSNGRAQFMRFQSDG | 0.82
DEDVERIIKRFLTALTHNDPEQAAQNVDPNAQVRIGDKSVHGKDQLKNRIEEEVKEMRVDIKHMSVDVKGNKASIHLHFVIQTNGKPDEKTAVMEVVVQGDKIHELELHDTK | 0.725
DEDVKELAEKYWKVVKEGNPHEVKKMVDPNVKFNVGEQHIHGREEVARQVSKENREIRINYQLRDVKVHNGRVDVTADLEEEHNGKPETNKVKAHFVFRNGRVQTLSQTNKK | -0.031

Sequence | protease stability score
DEDVKKLFEDWLRALQTNNPDEVNEMADPNVTVKVGNKVVHGREQLNKDLKEETKHIRVTYHHVDLTVHNGRAKARLDVTVNVNGRPVRFQFNVTVHARNGRVVSMHVQIPHEVLETIKQ | 1.57
DEDVKRMIEDFIEAEKKNNPRQLKKNADPEAEADVGDTKVHGMDHFAREVKKRMDQMRVSVDYKSITVDGNTIKAKARVSENHNGRPKHNTATLEFRAHNGRIKEIRHHEDK | -0.332
DEDVKRVMEELVKVMHNNDPNEFMKLLDPNARWTIGDKTYHGRDNLRREVKKHHDQQRVQYKSWHIDVHGERATATAEVRVDHNGQPDTFRLVISAQAHNGRVKRAEYRKDT | -0.145
DEDVQDQYRKILEAEKKNNPDHLNELMDPNVKFNVGDHTIHGREQRKEKQDELVKESRYDIKVDRVSVKGNKFVAKFKVTEEHNGRPHTTVLVIVMTVENGHVKRLQVKRDK | -0.001
DEDVQKIAETFWRVLKQGNEDDARRLIDPNARINVGNKNYHGREQIAEIIKKKKEEIRFSIDDVKVRVHNGELTASIDFKVNVNGRPDSIHVEFRMVVHNGKIVQIQMQVDEDWMKELES | 0.788
DEDVVDEFRRAIESNDFDRLVELADENAKADIGNKTVRGRDEMKDLMTSQKRRVDHLQVTSFSIDGDKLTVRYIANIDGHKIDNVVRFVAHNGKLKHMEVRARSEEQQKTLEKLIG | 0.059
DEDVVKEWMTDQRNNNEKRLQSLVDPNAKLEYGDKSIHGDEEMHEWAKKLRESVDHWEVKEYDIHNGTAEADVVVQFNGREIRYQFVAVAHNGSVTSIVYRARDEDFERFLDDIFS | 0.165
DEEAAKHVNRMLEKGDEKKIAQHVDKDARAHVGNQELHGREDIIRAVTRFRQQADHMRVDSYEVQGDRIEVTFEVVVNGHKMQLKATIRVDNGRIKHNKIQARSEEQTKQMQKLLD | -0.171
DEEAAKKMMETWMKAVQKGDEKTVQKVYKPNGRWVHIDEERQGVEVVVKMMQQVKKQGVEFQIRRAKVEGDRVQFVYDLRLGDKTATFTVELQAQGGRVQEVKAEVSEEAKEIVTKG | 0.14
DEEAAKKVKTLVEHGDFQQMARNFDEDARVVIGDRVVHGREQAIEAMRRFDEAVDHQEVKSVTSSGNKVKFNIQAHVDGKTVRMIVVIEMHNGKLKMVRFDATSEDLRRILKRSLG | 1.27
DEEAAKLMRKMQQAVRSNNPEEVQRMMDPNASAKYGDKEVHGREEIATHLVKETRRMHIHYDVEHITVDNGRADVTADVQQEHNGKPERRKYKVHIEVRGDKLVHLRFETRK | 0.06
DEEAAKRAEEYLKALRSGNPDDLKKQIDPNASYQIGDKRVHGREQQATLAHNLQHNMRMEWELKDYRVQGNSVTLEIDVVIEHNGRPEKFKADVRVTFHNGKIQEMTVREDK | 0.051
DEEAAKRLENILKAEERNDEDSLRRLMDKDAHINVGDRQVHGMDRRRENVQHQSRRSDIQLESINKHENGDTVHVDVVRRYQHNGRPSRERFDAVAQVHNGKMRSMTAQDSQ | -0.44
DEEAARKFEHALRVREHGNEHQLQELVDPNARVSIGDKRVKGHERIQHWQETLHHEMRFRMQVDSYEVQGEKVRFNVRVQYDINGQPVDDRMTLVVQFDNGRIKSVEYQIPTEMKRDLKR | 0.032
DEEADKRITEQLKQEQEGDKDKVKEQIDPNARIKVGDKTIHGMDEYVRMVHRTRREQRRRIRVVSVEVRGNTAKVDADRHIDVNGRPVRYRIEFHVEFHNGKVTDIHVHTDQEQKKKQHG | 0.655
DEEAEDLVKELWKAWKHNDPDTWVKQLPPDARISVGNKEVHGREQARHEFERQVERMQVRLKVDSVHNRGNKAHFHVTVDASVNGKPVTFTVEVVITFHNGKAKYIEMRMSEEQFDKFQG | 1.41
DEEAEHVARELQKAQETGNPKRARHMMDENARIQVGDHRIHGMSRYLEDLRRKQEEIRIEFKRVSHNVNGNRVVINFLAVYEVNGHPVHLRIQLSFEIHNGRAQTMDVNISEQQMRDIER | -0.022
DEEAEKELRKMFQNENKGNPNEVMKQFDKHARVKVGEKEIRGRHQVHNYVDHVRKEMRRQIDSMSLEVHGNKLIVHITYVADINGHPVRVQVQYIIQFHNGKIKEVKVKIDEDEKRRMDQ | 0.385
DEEAEKLAREFIKAVQTGDEEELNELMDPNARFRIGNKTFHGMTNAAKEFNDKRREAHIEYHITSIRVSGDHVEVKVEVHVNVNGKPVHNEVTMDFKRHNGRIRDFQVQIDEEDQKKQDK | 1.29
DEEAEKRFEELMENRKTGNEHDVSEYADPNVTARIGDHEVRGREQLHDLQRKEKEEMRVDIKDYRLDFNGDTVRVEVHLEDEHNGRPRDRHQSNSFRWQNGKLKELHIRSDK | -0.353
DEEAEKVYRKMLHALRTGNEHQLKKLMDPNVHVKVGDKHIHGREDVAQEQRTDRQRWRNDQQLVTFHAEGDQVEFTVEYVIEVNGQPDKDRYKAFFRFDNGKIKEFQVDIDPKELKEQLN | 0.096
DEEAERIAEEFIRAQQTGDKDRLRKLMDPNARANVGDKRYHGMERWAKDVARTMHEQRVEIKDLKISVQGNKADVHIDLVVDHNGQPRRFDMRLDFRFNNGTIKEVSYDDKR | 0.391
DEEAERIIERYLEAVKTNDPEQMKEMADPNVKVKVGDKVIHGMEDAVKKVQHRLDEQRVEIKHVTLKVRNGRVNVEADVVVTHNGRPDRSKYHIDMEAHNGSAVYVRITDVS | 1.38
DEEAETVLKRWLTALRENDPQQAADLADPHAQFQIGEKTIRGREDLKRFMDEMLHHLRVDFTIDHVKVTGETVVVHFTVEFNVNGRPLRFEVVLVVKAENGKVKQLEQHMDDDQWRQVKS | 0.358
DEEAFKRFKEMVDAIRTGDRDRVRRLADPNARFEVGDKEVRGMDDYARKIKRKRDEIRMRYQIDSYSKSGDKVVARVQVEVEHNGQPSSHVYRAEFKNSNGRIVELNVKTDS | 0.275
